These results are taken from paper PMC3879712 (Cell Research, 2013).

Data set [1] has as its target MLKL in membrane fraction (chemically cross-linked) (UniProt Q9D2Y4). Description: cross-linking.
Data set [2] deals with ND-HBD*-GFP-Flag (mouse | not stated) (UniProt Q9D2Y4). The experiment in a line: SiMPull.
Data set [3] has as its target ND-HBD*-3×HA (mouse | not stated) (UniProt Q9D2Y4). The experiment in a line: non-reducing SDS-PAGE with immunoblot. (In general: A western blot detects proteins with antibodies after separation by electrophoresis.)
Data set [4] deals with the molecule itself. The experiment in a line: non-reducing SDS-PAGE with immunoblot.

Turning to “MLKL in membrane fraction (chemically cross-linked) (from UniProt Q9D2Y4 1-472) (natural protein)”, in data set [1], the stoichiometry N (in general, the number of molecules, sites or subunits per partner or assembly) was above 4. In turn, “ND-HBD*-GFP-Flag (from UniProt Q9D2Y4-2 1-190)” gave a stoichiometry N in data set [2] below 4.

For the molecule “ND-HBD*-3×HA (from UniProt Q9D2Y4-2 1-190)”, the stoichiometry N in data set [3] worked out at 4.

B1: endogenous MLKL of L929 cells (natural protein, mouse (endogenous in L929), UniProt Q9D2Y4-2 1-464, looked up)
chain: MDKLGQIIKLGQLIYEQCEKMKYCRKQCQRLGNRVHGLLQPLQRLQAQGKKNLPDDITAALGRFDEVLKEANQQIEKFSKKSHIWKFVSVGNDKILFHEVNEKLRDVWEELLLLLQVYHWNTVSDVSQPASWQQEDRQDAEEDGNENMKVILMQLQISVEEINKTLKQCSLKPTQEIPQDLQIKEIPKEHLGPPWTKLKTSKMSTIYRGEYHRSPVTIKVFNNPQAESVGIVRFTFNDEIKTMKKFDSPNILRIFGICIDQTVKPPEFSIVMEYCELGTLRELLDREKDLTMSVRSLLVLRAARGLYRLHHSETLHRNISSSSFLVAGGYQVKLAGFELSKTQNSISRTAKSTKAERSSSTIYVSPERLKNPFCLYDIKAEIYSFGIVLWEIATGKIPFEGCDSKKIRELVAEDKKQEPVGQDCPELLREIINECRAHEPSQRPSVDGILERLSAVEESTDKKV
Consider B1, for which the “stoichiometry N” value in data set [4] was found to be 4.
